Data taken from article PMC5362243, “A rare IL33 loss-of-function mutation reduces blood eosinophil counts and protects from asthma” (PLoS Genetics, 2017).

Biological target: T1, Human ST2-Flag-His (recombinant IL-33R, extracellular domain) (human, UniProt Q01638-1 19-328)
T1 construct: human ST2 (IL1RL1, IL-33 receptor), recombinant protein encompassing the extracellular domain; Captured on the chip through its His tag by an immobilised penta-His antibody; also called IL-33R/ST2; IL1RL1; source: prepared by Amgen
T1 sequence (looked up): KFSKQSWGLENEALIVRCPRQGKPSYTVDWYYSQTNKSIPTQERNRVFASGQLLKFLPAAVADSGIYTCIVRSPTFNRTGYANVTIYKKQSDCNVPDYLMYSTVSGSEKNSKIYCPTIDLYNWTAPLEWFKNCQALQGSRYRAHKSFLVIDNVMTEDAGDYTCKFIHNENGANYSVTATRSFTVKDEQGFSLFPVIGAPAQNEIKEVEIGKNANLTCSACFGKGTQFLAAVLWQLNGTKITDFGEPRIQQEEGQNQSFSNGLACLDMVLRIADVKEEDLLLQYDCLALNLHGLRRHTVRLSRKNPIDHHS
Test: SPR; Biacore T200, CM5 chip; human ST2-Flag-His captured by amine-coupled penta-His antibody; IL-33 variants injected at 200 nM (180 s association, 300 s dissociation); 25°C, HBS-P (10 mM HEPES pH 7.4, 150 mM NaCl, 0.05% P20); single replicate
Settings: both partners purified

B1: IL-33 (95-270), wild type cytokine domain (domain or fragment, human, UniProt O95760-1 95-270, looked up)
chain: AFGISGVQKYTRALHDSSITGISPITEYLASLSTYNDQSITFALEDESYEIYVEDLKKDEKKDKVLLSYYESQHPSNESGDGVDGKMLMVTLSPTKDFWLHANNKEHSVELHKCEKPLPDQAFFVLHNMHSNCVSFECKTDPGVFIGVKDNHLALIKVDSSENLCTENILFKLSET
notes: human interleukin-33, residues 95-270 of the 270-residue protein, released by thrombin cleavage from a poly-His fusion (pET24a); Start at residue 95 chosen after the natural processing of IL-33; also called wild type IL-33 (95–270); IL-33 (95–270) (Amgen); source: E. coli, purified (nickel HisTrap, SEC, thrombin cleavage, SEC); not shown: poly-His, N-terminal, cleaved
Does B1 bind?
Result: binds
